As usually defined, the Kd is a measure of binding affinity in units of concentration. By IC50 is commonly meant the concentration that gives 50% inhibition.

This is an account of results in patent US20250152704A1 (PARAGON THERAPEUTICS, published 2025).

One experiment has as its target FcRn-GFP. Description: cell-based or functional assay.
Experiment [1] concerns the target T1, Recombinant in-house Human FcRn protein (human, UniProt P55899 24-297; P61769 21-119, limits assumed).
T1 construct: also called huFCRN; HuFcRn
Description: SPR, pH 6.

Experiment [2] concerns the target T2, cynomolgus monkey FcRn (cynomolgus monkey, UniProt Q8SPV9 24-297; Q8SPW0 21-119, limits assumed).
T2 construct: also called cynoFcRn
As to the kind of experiment: SPR, pH 6. (In SPR one partner is held on a chip, and binding of the other changes the refractive index at the surface.)

The target of experiment [3] is T3, mouse FcRn (mouse, UniProt Q61559 22-297; P01887 21-119, limits assumed).
T3 sequence (looked up) 1: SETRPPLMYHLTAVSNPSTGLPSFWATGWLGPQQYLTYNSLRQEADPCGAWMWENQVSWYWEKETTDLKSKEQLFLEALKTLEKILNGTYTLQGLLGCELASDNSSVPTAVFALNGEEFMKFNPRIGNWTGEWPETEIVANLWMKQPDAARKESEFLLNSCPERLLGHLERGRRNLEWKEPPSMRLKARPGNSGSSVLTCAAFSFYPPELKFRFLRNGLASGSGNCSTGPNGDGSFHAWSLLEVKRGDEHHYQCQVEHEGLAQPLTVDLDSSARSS
T3 sequence (looked up) 2: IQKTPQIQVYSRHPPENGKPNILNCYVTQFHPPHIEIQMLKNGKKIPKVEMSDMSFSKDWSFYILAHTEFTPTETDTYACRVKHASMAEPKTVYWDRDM
Description: SPR, pH 6.

The target in experiment [4] is T4, rat FcRn (rat, UniProt P13599 23-298; P07151 21-119, limits assumed).
T4 sequence (looked up) 1: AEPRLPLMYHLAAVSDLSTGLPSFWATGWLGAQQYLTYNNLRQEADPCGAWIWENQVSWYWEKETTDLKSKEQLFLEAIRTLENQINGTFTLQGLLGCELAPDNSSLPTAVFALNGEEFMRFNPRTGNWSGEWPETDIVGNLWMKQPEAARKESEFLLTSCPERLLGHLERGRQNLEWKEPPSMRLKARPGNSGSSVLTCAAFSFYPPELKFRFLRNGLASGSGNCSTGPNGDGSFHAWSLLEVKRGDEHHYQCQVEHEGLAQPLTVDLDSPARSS
T4 sequence (looked up) 2: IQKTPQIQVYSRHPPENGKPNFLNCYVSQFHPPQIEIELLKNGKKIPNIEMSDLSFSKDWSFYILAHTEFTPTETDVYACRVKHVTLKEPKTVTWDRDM
Description: SPR, pH 6.

The target of experiment [5] is T1, Recombinant in-house Human FcRn protein. As to the kind of experiment: SPR, pH 7.4.
Experiment [6] concerns the target T2, cynomolgus monkey FcRn. As to the kind of experiment: SPR, pH 7.4.
Experiment [7] has as its target T3, mouse FcRn. As to the kind of experiment: SPR, pH 7.4.
In experiment [8] the target is T4, rat FcRn. As to the kind of experiment: SPR, pH 7.4.
Experiment [9] addresses T1, Recombinant in-house Human FcRn protein. As to the kind of experiment: competitive binding ELISA, pH 6.0, in triplicate; competitor IgG. For orientation: ELISA stands for enzyme-linked immunosorbent assay.
Experiment [10] shares this target. As to the kind of experiment: competitive binding ELISA, pH 6.0; competitor Efgartigimod (Fc Fragment 1).

T1 sequence (P55899 24-297 limits assumed, chain 1 of 2): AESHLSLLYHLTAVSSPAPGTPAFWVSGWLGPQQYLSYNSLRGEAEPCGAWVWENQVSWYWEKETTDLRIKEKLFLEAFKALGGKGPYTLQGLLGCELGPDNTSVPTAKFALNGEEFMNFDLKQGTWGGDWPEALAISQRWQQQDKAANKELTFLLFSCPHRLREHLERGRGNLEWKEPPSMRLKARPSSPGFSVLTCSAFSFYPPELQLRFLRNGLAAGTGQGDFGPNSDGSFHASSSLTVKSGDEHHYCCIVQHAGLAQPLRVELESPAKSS
T1 sequence (P61769 21-119 limits assumed, chain 2 of 2): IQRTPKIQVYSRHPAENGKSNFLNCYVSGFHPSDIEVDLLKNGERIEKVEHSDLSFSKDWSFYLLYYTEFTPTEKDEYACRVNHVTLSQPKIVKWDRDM

B1: Fc Fusion Molecule 22 (Fc fusion)
chain 1: DKTHTCPPCPAPELLGGPSVFLFPPKPKDTLYITREPEVTCVVVDVSHEDPEVKFNWYVDGVEVHNAKTKPREEQYNSTYRVVSVLTVLHQDWLNGKEYKCKVSNKALPAPIEKTISKAKGQPREPQVCTLPPSRDELTKNQVSLSCAVKGFYPSDIAVEWESNGQPENNYKTTPPVLDSDGSFFLVSKLTVDKSRWQQGNVFSCSVMHEALKYHYTQKSLSLSPGGGGGSGGGGSGGGGSEVQLLESGGGLVQPGGSLRLSCAASGFTFRSFGMSWVRQAPGKGPEWVSSISGSGSDTLYADSVKGRFTISRDNSKNTLYLQMNSLRPEDTAVYYCTIGGSLSRSSQGTLVTVSS
chain 2: DKTHTCPPCPAPELLGGPSVFLFPPKPKDTLYITREPEVTCVVVDVSHEDPEVKFNWYVDGVEVHNAKTKPREEQYNSTYRVVSVLTVLHQDWLNGKEYKCKVSNKALPAPIEKTISKAKGQPREPQVYTLPPCRDELTKNQVSLWCLVKGFYPSDIAVEWESNGQPENNYKTTPPVLDSDGSFFLYSKLTVDKSRWQQGNVFSCSVMHEALKYHYTQKSLSLSPG
In the case of B1, the “Average (n = 3) Residual FcRn” value with FcRn-GFP is 20.

B2: Fc Fusion Molecule 41 (Fc fusion)
chain 1: DKTHTCPPCPAPELLGGPSVFLFPPKPKDTLYITREPEVTCVVVDVSHEDPEVKFNWYVDGVEVHNAKTKPREEQYNSTYRVVSVLTVLHQDWLNGKEYKCKVSNKALPAPIEKTISKAKGQPREPQVCTLPPSRDELTKNQVSLSCAVKGFYPSDIAVEWESNGQPENNYKTTPPVLDSDGSFFLVSKLTVDKSRWQQGNVFSCSVMHEALKYHYTQKSLSLSPGGGGGSGGGGSGGGGSGGGGSGGGGSGGGGSEVQLLESGGGLVQPGGSLRLSCAASGFTFRSFGMSWVRQAPGKGPEWVSSISGSGSDTLYADSVKGRFTISRDNSKNTLYLQMNSLRPEDTAVYYCTIGGSLSRSSQGTLVTVSS
chain 2: DKTHTCPPCPAPELLGGPSVFLFPPKPKDTLYITREPEVTCVVVDVSHEDPEVKFNWYVDGVEVHNAKTKPREEQYNSTYRVVSVLTVLHQDWLNGKEYKCKVSNKALPAPIEKTISKAKGQPREPQVYTLPPCRDELTKNQVSLWCLVKGFYPSDIAVEWESNGQPENNYKTTPPVLDSDGSFFLYSKLTVDKSRWQQGNVFSCSVMHEALKYHYTQKSLSLSPG
B2: the “Average (n = 3) Residual FcRn” value with FcRn-GFP was 31.

B3: Fc Fusion Molecule 42 (Fc fusion)
chain 1: DKTHTCPPCPAPELLGGPSVFLFPPKPKDTLYITREPEVTCVVVDVSHEDPEVKFNWYVDGVEVHNAKTKPREEQYNSTYRVVSVLTVLHQDWLNGKEYKCKVSNKALPAPIEKTISKAKGQPREPQVCTLPPSRDELTKNQVSLSCAVKGFYPSDIAVEWESNGQPENNYKTTPPVLDSDGSFFLVSKLTVDKSRWQQGNVFSCSVMHEALKYHYTQKSLSLSPGGGGGSGGGGSGGGGSGGGGSGGGGSGGGGSGGGGSGGGGSEVQLLESGGGLVQPGGSLRLSCAASGFTFRSFGMSWVRQAPGKGPEWVSSISGSGSDTLYADSVKGRFTISRDNSKNTLYLQMNSLRPEDTAVYYCTIGGSLSRSSQGTLVTVSS
chain 2: DKTHTCPPCPAPELLGGPSVFLFPPKPKDTLYITREPEVTCVVVDVSHEDPEVKFNWYVDGVEVHNAKTKPREEQYNSTYRVVSVLTVLHQDWLNGKEYKCKVSNKALPAPIEKTISKAKGQPREPQVYTLPPCRDELTKNQVSLWCLVKGFYPSDIAVEWESNGQPENNYKTTPPVLDSDGSFFLYSKLTVDKSRWQQGNVFSCSVMHEALKYHYTQKSLSLSPG
As to B3, the “Average (n = 3) Residual FcRn” value in the experiment with FcRn-GFP turned out to be 48.

B4: Fc Fusion Molecule 43 (Fc fusion)
chain 1: DKTHTCPPCPAPELLGGPSVFLFPPKPKDTLYITREPEVTCVVVDVSHEDPEVKFNWYVDGVEVHNAKTKPREEQYNSTYRVVSVLTVLHQDWLNGKEYKCKVSNKALPAPIEKTISKAKGQPREPQVCTLPPSRDELTKNQVSLSCAVKGFYPSDIAVEWESNGQPENNYKTTPPVLDSDGSFFLVSKLTVDKSRWQQGNVFSCSVMHEALKYHYTQKSLSLSPGGGGGSGGGGSGGGGSEVQLLESGGGLVQPGGSLRLSCAASGFTFRSAGMSWVRQAPGKGPEWVSSISGSGSDTLYADSVKGRFTISRDNSKNTLYLQMNSLRPEDTAVYYCTIGGSLSRSSQGTLVTVSS
chain 2: DKTHTCPPCPAPELLGGPSVFLFPPKPKDTLYITREPEVTCVVVDVSHEDPEVKFNWYVDGVEVHNAKTKPREEQYNSTYRVVSVLTVLHQDWLNGKEYKCKVSNKALPAPIEKTISKAKGQPREPQVYTLPPCRDELTKNQVSLWCLVKGFYPSDIAVEWESNGQPENNYKTTPPVLDSDGSFFLYSKLTVDKSRWQQGNVFSCSVMHEALKYHYTQKSLSLSPG
Regarding B4, the “Average (n = 3) Residual FcRn” value with FcRn-GFP stood at 12.

B5: Fc Fragment 11 (other)
chain: DKTHTCPPCPAPELLGGPSVFLFPPKPKDTLYITREPEVTCVVVDVSHEDPEVKFNWYVDGVEVHNAKTKPREEQYNSTYRVVSVLTVLHQDWLNGKEYKCKVSNKALPAPIEKTISKAKGQPREPQVYTLPPSRDELTKNQVSLTCLVKGFYPSDIAVEWESNGQPENNYKTTPPVLDSDGSFFLYSKLTVDKSRWQQGNVFSCSVLHEALHFHYTQKSLSLSPG
notes: Human IgG1 Fc fragment; substitutions already in the entry
Take B5: the Kd came to 8.41 nM in experiment [1]; 38.6 nM with cynomolgus monkey FcRn [2]; 0.248 nM with mouse FcRn [3]; 2.9 nM in the experiment with rat FcRn [4]; 269 nM in [5]; 1700 nM with cynomolgus monkey FcRn [6]. The Kd in the experiment with mouse FcRn [7] amounted to 4.05 nM; with rat FcRn [8], 14.7 nM. Further, the IC50 in experiment [9] was determined as 1.51 nM; in experiment [10], 6.47 nM.

B6: Fc Fragment 14 (other)
chain: DKTHTCPPCPAPELLGGPSVFLFPPKPKDTLYITREPEVTCVVVDVSHEDPEVKFNWYVDGVEVHNAKTKPREEQYNSTYRVVSVLTVLHQDWLNGKEYKCKVSNKALPAPIEKTISKAKGQPREPQVYTLPPSRDELTKNQVSLTCLVKGFYPSDIAVEWESNGQPENNYKTTPPVLDSDGSFFLYSKLTVDKSRWQQGNVFSCSVLHEALRFHYTQKSLSLSPG
notes: as for B5
Take B6: the Kd in experiment [1] stood at 8.26 nM; in the experiment with cynomolgus monkey FcRn [2] it was 36.1 nM; with mouse FcRn [3] it was 0.288 nM; with rat FcRn [4], 3.94 nM; in experiment [5] it was 249 nM; with cynomolgus monkey FcRn [6] it was 1600 nM. For the same molecule, the Kd with mouse FcRn [7] stood at 2.34 nM; in the experiment with rat FcRn [8], 12.4 nM. Moreover, the IC50 in [9] worked out at 2.09 nM; in experiment [10] it was 3.85 nM.

B7: Fc Fragment 12 (other)
chain: DKTHTCPPCPAPELLGGPSVFLFPPKPKDTLYITREPEVTCVVVDVSHEDPEVKFNWYVDGVEVHNAKTKPREEQYNSTYRVVSVLTVLHQDWLNGKEYKCKVSNKALPAPIEKTISKAKGQPREPQVYTLPPSRDELTKNQVSLTCLVKGFYPSDIAVEWESNGQPENNYKTTPPVLDSDGSFFLYSKLTVDKSRWQQGNVFSCSVMHEALRYHYTQKSLSLSPG
notes: as for B5
Take B7: the Kd in [1] came to 7.15 nM; in the experiment with cynomolgus monkey FcRn [2], 30.1 nM; in the experiment with mouse FcRn [3], 0.194 nM; in the experiment with rat FcRn [4] it was 5.41 nM; in experiment [5], 166 nM; in the experiment with cynomolgus monkey FcRn [6], 900 nM. Moreover, the Kd with mouse FcRn [7] is 2.83 nM; in the experiment with rat FcRn [8], 17.3 nM. Besides, the IC50 in experiment [9] stood at 1.41 nM; in experiment [10], 3.73 nM.

B8: Fc Fragment 13 (other)
chain: DKTHTCPPCPAPELLGGPSVFLFPPKPKDTLYITREPEVTCVVVDVSHEDPEVKFNWYVDGVEVHNAKTKPREEQYNSTYRVVSVLTVLHQDWLNGKEYKCKVSNKALPAPIEKTISKAKGQPREPQVYTLPPSRDELTKNQVSLTCLVKGFYPSDIAVEWESNGQPENNYKTTPPVLDSDGSFFLYSKLTVDKSRWQQGNVFSCSVMHEALRFHYTQKSLSLSPG
notes: as for B5
For the molecule B8, the Kd in [1] was 9.53 nM; in the experiment with cynomolgus monkey FcRn [2], 41.7 nM; in the experiment with mouse FcRn [3] it was 0.2 nM; with rat FcRn [4] it was 4.33 nM; in experiment [5], 248 nM; in the experiment with cynomolgus monkey FcRn [6], 1370 nM. Further, the Kd was determined as 2.73 nM with mouse FcRn [7] and 16.2 nM with rat FcRn [8]. In addition, the IC50 was 1.13 nM in experiment [9] and 4.71 nM in [10].
